Laboratory results: the supplement of paper PMC10567573

B1: TOR1AIP2 (parent)
chain: AGQEGEDTLRRRLLAPEAGSHPQQ
B2: ZNF649 (parent)
chain: MTKAQESLTLEDVAVDFTWEEWQF

Variants of: B1
Test: protein stability index of a GFP-peptide fusion (GPS, HEK-293T) (PSI 1-6); higher = more stable
Details: c terminus: a fixed tail appended
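Note: lentivirally expressed fusions sorted by FACS into six bins by GFP to DsRed ratio, PSI derived from sequencing read proportions per bin multiplied by bin number.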

Protein stability index of substitutions, site by site:
E17: G 3.5 | L 2.13 | Q 2.63 | R 4.68 | F 3.31 | N 3.16 | T 4.53 | C 3.65 | M 2.79 | Y 2.44 | V 4.57 | I 4.11 | K 3.86 | H 3.34 | D 2.2 | S 4.34 | P 5.13 | A 4.22
A15: H 5.18 | E 5.18 | C 1.34 | G 4.34 | D 5.39 | W 4.49 | N 4.55 | Y 4.12 | Q 4.9 | I 4.48 | S 3 | V 5.17 | K 5.44 | R 5.03 | T 3.68 | F 4.87 | L 5.02 | P 5.46 | M 4.55
Q24: M 2.81 | D 2.38 | R 2.05 | C 1.85 | Y 2.46 | L 1.79 | F 2.37 | W 2.17 | V 2.58 | P 2.41 | E 2.52 | H 1.7 | I 2.16 | S 2.4 | T 2.22 | N 2.25
L13: K 5.21 | Y 4.14 | V 3.31 | P 5.6 | H 4.82 | W 3.21 | I 1.82 | Q 5.15 | S 5.22 | G 5.55 | T 5.03 | M 2.22 | R 5.04 | N 5.55
S20: A 2.45 | G 2.25 | E 2.91 | W 2.08 | N 2.02 | Q 2.35 | Y 2.18 | F 1.73 | C 1.62 | D 3.33 | P 2.53 | M 2.68 | V 1.73 | K 1.97 | T 2.1 | I 2.08 | H 2.1 | L 2.09 | R 2.28
P16: Q 5.21 | F 4.52 | S 5.43 | K 5.01 | V 4.63 | C 4.47 | D 5.74 | A 5.48 | N 5.24 | T 4.45 | Y 4.86 | L 5.32 | I 5.07 | M 4.81 | W 3.99 | E 5.45 | R 4.7 | G 5.51 | H 4.5
P22: Y 1.52 | T 1.87 | H 1.65 | I 2.56 | L 2.14 | W 1.94 | Q 2.34 | F 2.31 | E 2.66 | R 2.04 | K 2.44 | G 2.44 | M 2.67 | V 2.4 | D 2.6 | S 1.81 | C 2.43 | A 2.58 | N 3.24
H21: Y 1.85 | I 2.96 | F 2.02 | S 2.76 | W 2.6 | M 1.88 | V 2.1 | T 2.26 | D 3.73 | P 2.82 | L 2.27 | G 2.47 | R 2.14 | N 2.69 | Q 2.7 | C 2.69 | A 2.53 | K 2.58 | E 1.73
A18: E 3.46 | N 4.09 | K 3.5 | T 3.11 | S 2.35 | P 4.77 | V 2.75 | F 2.16 | I 1.9 | Q 3.35 | G 3.92 | C 2.48 | W 2.21 | M 2.08 | L 1.57 | D 3.62 | H 3.03 | Y 1.43 | R 2.87
L14: Y 4.5 | R 5.17 | C 4.91 | K 5.51 | S 5.63 | H 5.5 | N 5.56 | V 5.37 | W 4.69 | M 4.6 | G 5.21 | A 5.73 | D 5.59 | E 5.37 | P 5.93 | T 5.58 | Q 5.68 | I 5.06 | F 4.25
Q23: W 1.81 | N 2.17 | K 2.74 | S 1.85 | L 2.45 | T 1.61 | R 2.54 | C 2.54 | Y 2.01 | H 2.01 | V 2.69 | M 2.24 | A 2.36 | I 1.73 | G 1.78 | E 2.18 | P 3.1 | D 2.75
G19: T 2.58 | C 2.15 | A 2.23 | I 2.54 | P 2.69 | W 1.31 | K 1.86 | V 2.37 | D 2.83 | Q 2.13 | F 1.86 | E 2.15 | Y 1.75 | M 3 | N 2.27 | H 2.22 | R 2.49 | L 1.72

Variants of: B2
Test: as above
Details: c terminus: a fixed tail appended

Protein stability index, by site and new letter:
S7: E 3.93 | H 2.6 | C 2.9 | F 3.2 | D 3.75 | A 2.82 | G 3.8
E6: C 2.52 | F 1.89 | L 2.43 | H 2.2 | A 1.87 | I 4.31 | G 2.74 | Q 2.94 | K 3.02 | R 2.88 | S 2.33 | T 2.71 | Y 1.53 | W 1.95 | V 1.75 | P 2.78 | N 2.88 | D 3.14 | M 1.92
K3: S 3.85 | E 4.29 | M 2.64 | G 3.36 | Y 2.64 | V 3.23 | D 3.63 | N 3.65 | H 3.7 | W 2.53 | T 3.33 | Q 2.98 | R 3.12 | C 2.23 | I 2.74 | F 2.17 | L 2.84 | P 3.33
T2: V 2.64 | R 2.72 | A 3.09 | H 2.88 | K 3.77 | I 2.75 | G 3.25 | L 3.97 | P 3.66 | N 3.62 | W 2.36 | Y 2.33 | C 2.57 | E 3.94 | F 2.66 | D 3.5 | S 2.55
Q5: N 3.33 | V 3.37 | W 1.49 | C 2.78 | Y 2.32 | G 2.84 | D 3.4 | I 3.02 | M 2.92 | F 3.12 | L 2.97 | T 3.04 | H 3.2 | P 3.04 | S 3.96 | E 3.35 | A 3.02 | R 2.46 | K 2.83
A4: Q 3.18 | F 2.51 | M 2.5 | L 3.71 | T 3.11 | R 2.97 | H 3.48 | P 3.75 | S 3.45 | N 3.04 | Y 2.56 | K 3.15 | W 2.15 | I 2.89 | E 3.66 | C 2.4 | G 2.94 | D 3.48 | V 2.52
M1: C 2.82 | W 2.07 | L 2.94 | Y 2.96 | T 3.79 | S 3.91 | N 4.67 | Q 3.89 | E 4.48 | F 2.69 | D 3.95 | G 3.43 | P 2.81 | V 3.07 | I 2.83 | H 3.72 | K 3.29 | A 3.33
